Substrate: Nc1ncnc2c1ncn2[C@@H]1O[C@H](COP(=O)(O)OP(=O)(O)OP(=O)(O)O)[C@@H](O)[C@H]1O
Assay: ATP hydrolysis, thin layer chromatography of [α-32P]-ADP
Assay type: biochemical, Saccharomyces cerevisiae
Details: 200 nM MutLγ, 25 mM Tris-HCl pH 7.5, 5 mM MgCl2, 1 mg/ml BSA, 30°C, no DNA, labelled compound as tracer (33 nM [α-32P]-ATP plus cold ATP), both subunits carry a GHKL ATPase domain, single apparent Km

B1: MutLγ (Mlh1-Mlh3) (Saccharomyces cerevisiae S288C) (protein)
chain 1: MSLRIKALDASVVNKIAAGEIIISPVNALKEMMENSIDANATMIDILVKEGGIKVLQITDNGSGINKADLPILCERFTTSKLQKFEDLSQIQTYGFRGEALASISHVARVTVTTKVKEDRCAWRVSYAEGKMLESPKPVAGKDGTTILVEDLFFNIPSRLRALRSHNDEYSKILDVVGRYAIHSKDIGFSCKKFGDSNYSLSVKPSYTVQDRIRTVFNKSVASNLITFHISKVEDLNLESVDGKVCNLNFISKKSISPIFFINNRLVTCDLLRRALNSVYSNYLPKGNRPFIYLGIVIDPAAVDVNVHPTKREVRFLSQDEIIEKIANQLHAELSAIDTSRTFKASSISTNKPESLIPFNDTIESDRNRKSLRQAQVVENSYTTANSQLRKAKRQENKLVRIDASQAKITSFLSSSQQFNFEGSSTKRQLSEPKVTNVSHSQEAEKLTLNESEQPRDANTINDNDLKDQPKKKQKLGDYKVPSIADDEKNALPISKDGYIRVPKERVNVNLTSIKKLREKVDDSIHRELTDIFANLNYVGVVDEERRLAAIQHDLKLFLIDYGSVCYELFYQIGLTDFANFGKINLQSTNVSDDIVLYNLLSEFDELNDDASKEKIISKIWDMSSMLNEYYSIELVNDGLDNDLKSVKLKSLPLLLKGYIPSLVKLPFFIYRLGKEVDWEDEQECLDGILREIALLYIPDMVPKVDTSDASLSEDEKAQFINRKEHISSLLEHVLFPCIKRRFLAPRHILKDVVEIANLPDLYKVFERC
chain 2: MSQHIRKLDSDVSERLKSQACTVSLASAVREIVQNSVDAHATTIDVMIDLPNLSFAVYDDGIGLTRSDLNILATQNYTSKIRKMNDLVTMKTYGYRGDALYSISNVSNLFVCSKKKDYNSAWMRKFPSKSVMLSENTILPIDPFWKICPWSRTKSGTVVIVEDMLYNLPVRRRILKEEPPFKTFNTIKADMLQILVMHPMISLNVQYTDKLRINTEVLFRSKNITEGLTKHQQMSQVLRNVFGAIIPPDMLKKVSLKFNEYQIEGIISKMPVGLKDLQFIYINGRRYADSAFQGYVDSLFQAQDFGEKGMSLLKTKSVGKPYRSHPVFILDVRCPQTIDDLLQDPAKKIVKPSHIRTIEPLIVKTIRSFLTFQGYLTPDKSDSSFEIVNCSQKTATLPDSRIQISKRNQVLNSKMKIARINSYIGKPAVNGCRINNSTINYEKIKNIRIDGQKSRLRNKLSSRPYDSGFTEDYDSIGKTITDFSISRSVLAKYEVINQVDKKFILIRCLDQSIHNCPLLVLVDQHACDERIRLEELFYSLLTEVVTGTFVARDLKDCCIEVDRTEADLFKHYQSEFKKWGIGYETIEGTMETSLLEIKTLPEMLTSKYNGDKDYLKMVLLQHAHDLKDFKKLPMDLSHFENYTSVDKLYWWKYSSCVPTVFHEILNSKACRSAVMFGDELTRQECIILISKLSRCHNPFECAHGRPSMVPIAELK
notes: full-length heterodimer (175 kDa), N-terminal 6xHis-2xFlag tag kept on Mlh1 (Mlh3 untagged), co-expressed from baculoviruses in Sf9 cells
Work on B1 yielded a Km of 64 ± 13 µM.
